Test results from patent publication US6979572B1, “Compositions and methods for inhibiting inward-rectifier potassium channels” (Trustees of the University of Pennsylvania, priority 1998, dated 2005).
Like-named read-outs stand apart in the source and are kept apart here. Peptide text beside a SMILES is read from it.

What was measured:
GIRK1/4 channel = molecular target: T1, GIRK1/4 channel (Rattus norvegicus, UniProt P48548+P63251); test: cell-based; conditions: for inhibition at 1 µM: read-out: inhibition of the GIRK1/4 channel
T1 construct: expressed in transfected cells; host or cells: Xenopus laevis oocytes (cRNA injection)
T1 sequence (P63251 1-501): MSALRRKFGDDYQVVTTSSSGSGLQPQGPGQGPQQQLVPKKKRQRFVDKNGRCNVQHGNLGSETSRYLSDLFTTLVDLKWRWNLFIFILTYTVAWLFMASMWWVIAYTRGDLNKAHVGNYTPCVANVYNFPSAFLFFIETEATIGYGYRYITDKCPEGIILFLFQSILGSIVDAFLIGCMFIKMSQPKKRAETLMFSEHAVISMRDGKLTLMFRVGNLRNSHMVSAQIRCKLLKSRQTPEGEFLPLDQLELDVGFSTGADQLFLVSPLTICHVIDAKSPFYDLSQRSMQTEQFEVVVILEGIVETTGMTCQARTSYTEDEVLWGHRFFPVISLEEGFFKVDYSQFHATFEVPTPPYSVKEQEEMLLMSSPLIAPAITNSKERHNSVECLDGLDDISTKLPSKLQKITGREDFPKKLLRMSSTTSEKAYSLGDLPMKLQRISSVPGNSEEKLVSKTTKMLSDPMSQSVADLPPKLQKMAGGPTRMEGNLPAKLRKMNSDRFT
T1 sequence (P48548 1-419): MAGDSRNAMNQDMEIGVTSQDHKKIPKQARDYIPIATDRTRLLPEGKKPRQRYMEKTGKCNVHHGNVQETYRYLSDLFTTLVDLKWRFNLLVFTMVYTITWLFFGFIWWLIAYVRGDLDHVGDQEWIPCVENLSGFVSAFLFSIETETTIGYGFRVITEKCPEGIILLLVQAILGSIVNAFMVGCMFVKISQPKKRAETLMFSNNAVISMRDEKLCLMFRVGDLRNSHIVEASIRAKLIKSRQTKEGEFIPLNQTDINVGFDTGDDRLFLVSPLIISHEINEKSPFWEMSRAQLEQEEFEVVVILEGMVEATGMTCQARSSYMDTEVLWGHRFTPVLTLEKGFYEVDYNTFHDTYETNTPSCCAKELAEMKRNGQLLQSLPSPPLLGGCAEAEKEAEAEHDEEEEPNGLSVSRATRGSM

[1] = molecular target: T2, GIRK1/4 inward-rectifier K+ channel, P63251
T2 chain 1: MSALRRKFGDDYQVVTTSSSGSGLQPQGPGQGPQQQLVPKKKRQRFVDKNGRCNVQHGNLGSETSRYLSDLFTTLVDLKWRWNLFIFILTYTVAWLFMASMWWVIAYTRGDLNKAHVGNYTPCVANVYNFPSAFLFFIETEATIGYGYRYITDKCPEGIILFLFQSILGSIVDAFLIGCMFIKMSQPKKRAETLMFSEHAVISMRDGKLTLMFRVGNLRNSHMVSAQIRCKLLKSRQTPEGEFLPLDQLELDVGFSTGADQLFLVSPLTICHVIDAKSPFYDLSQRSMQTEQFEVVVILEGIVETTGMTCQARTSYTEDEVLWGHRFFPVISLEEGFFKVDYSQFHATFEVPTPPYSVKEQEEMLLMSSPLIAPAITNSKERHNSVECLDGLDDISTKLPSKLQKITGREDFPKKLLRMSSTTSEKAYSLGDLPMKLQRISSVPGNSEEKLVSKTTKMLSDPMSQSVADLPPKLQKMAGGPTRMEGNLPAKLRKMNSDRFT
T2 chain 2: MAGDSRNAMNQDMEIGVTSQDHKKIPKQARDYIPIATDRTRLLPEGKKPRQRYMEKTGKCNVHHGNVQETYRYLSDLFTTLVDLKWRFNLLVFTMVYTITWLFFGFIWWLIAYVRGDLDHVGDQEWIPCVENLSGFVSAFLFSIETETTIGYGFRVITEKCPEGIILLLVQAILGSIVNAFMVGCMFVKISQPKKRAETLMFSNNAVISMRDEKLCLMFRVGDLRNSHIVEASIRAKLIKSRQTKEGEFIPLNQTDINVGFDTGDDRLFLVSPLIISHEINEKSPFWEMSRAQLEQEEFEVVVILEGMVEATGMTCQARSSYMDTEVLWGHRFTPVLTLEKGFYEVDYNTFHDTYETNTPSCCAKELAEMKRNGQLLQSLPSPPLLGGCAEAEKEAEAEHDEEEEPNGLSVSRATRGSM

[2] = molecular target: T2, GIRK1/4 inward-rectifier K+ channel, …
[3] = molecular target: T2, GIRK1/4 inward-rectifier K+ channel, …

CC[C@H](C)[C@H](N)C(=O)N[C@@H](CCCCN)C(=O)N[C@H]1CSSC[C@@H]2NC(=O)[C@H]([C@@H](C)CC)NC(=O)[C@H](Cc3c[nH]cn3)NC(=O)[C@@H]3CCCN3C(=O)[C@H](CCCCN)NC(=O)[C@H]([C@@H](C)CC)NC(=O)[C@H](C(C)C)NC(=O)[C@H](Cc3c[nH]cn3)NC(=O)[C@H](CCCNC(=N)N)NC(=O)[C@H](CCCCN)NC(=O)[C@H](CSSC[C@@H](C(=O)NCC(=O)N[C@@H](CCCCN)C(=O)N[C@@H](CC(N)=O)C(N)=O)NC(=O)[C@H]([C@@H](C)CC)NC(=O)[C@H](CCCCN)NC(=O)[C@H](CCCNC(=N)N)NC2=O)NC(=O)[C@H](CC(N)=O)NC1=O [MCDP, mast cell degranulating peptide] (HELM PEPTIDE1{I.K.C.N.C.K.R.H.V.I.K.P.H.I.C.R.K.I.C.G.K.N.[am]}$PEPTIDE1,PEPTIDE1,3:R3-15:R3|PEPTIDE1,PEPTIDE1,5:R3-19:R3$$$V2.0; N-terminus and C-terminus assumed; bridges inferred)
effect on / sensitivity of the GIRK1/4 channel, in words (GIRK1/4 channel): do not inhibit the activity
inhibition at 1 µM (GIRK1/4 channel): 20 to 30%

CC(C)C[C@@H]1NC(=O)[C@H](C)NC(=O)[C@H]([C@@H](C)O)NC(=O)[C@H](CCC(=O)O)NC(=O)[C@@H]2CCCN2C(=O)[C@H](C)NC(=O)[C@H](CCCCN)NC(=O)[C@@H]2CSSC[C@@H](C(=O)N[C@@H](CCC(N)=O)C(=O)N[C@@H](CCC(N)=O)C(=O)N[C@@H](Cc3cnc[nH]3)C(N)=O)NC(=O)[C@H](CCCNC(=N)N)NC(=O)[C@H](CCCNC(=N)N)NC(=O)[C@H](C)NC(=O)[C@H](CSSC[C@H](N)C(=O)N[C@@H](CC(N)=O)C(=O)N2)NC1=O [apamin]
Kd (GIRK1/4 channel; GIRK1/4, read-out: affinity of the channel (Kd)): > 1000 nM
inhibition at 1 µM (GIRK1/4 channel; at 1 μM concentration): 20 to 30%

B1: apamin, P01500 28-45 (peptide)
peptide: CNCKAPETALCARRCQQH
modifications: not checked
fold lower affinity than for tertiapin [1]: > 100 fold
Kd [2]: > 1000 nM

B2: mast cell degranulating peptide, P01499 28-49 (peptide)
peptide: IKCNCKRHVIKPHICRKICGKN
modifications: not checked
fold lower affinity than for tertiapin [1]: > 100 fold
Kd [2]: > 1000 nM

B3: native tertiapin (peptide)
peptide: ALCNCNRIIIPHMCWKKCGKK
modifications: not checked
Kd [3]: 8.2 nM
